# Measurements reported in US20160145343A1 (UNIVERSITY OF PITTSBURGH OF THE COMMONWEALTH SYSTEM OF …, published 2016).
# Where no end group is shown, it is not given here. The star is where a group is joined. αGalNAc = CC(=O)N[C@@H]1[C@@H](O)[C@@H](O)[C@@H](CO)O[C@@H]1*; Galβ1‑3GalNAc = TF-antigen
# T1: Synthetic peptide (GVTSAPDTRPAPGSTAPPAH)2
# T1 peptide: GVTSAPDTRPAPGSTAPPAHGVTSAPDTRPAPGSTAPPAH
# T2: Synthetic peptide HGVTSAPDTRPAPGSTAPP
# T2 construct: Unglycosylated; also called 346; MUC1 repeat
# T2 peptide: HGVTSAPDTRPAPGSTAPP
# T3: SEQ ID NO: 346 glycopeptide with TF-antigen at Thr4
# T3 construct: also called T4^TF
# T3 peptide: HGVT(Galβ1‑3GalNAc)SAPDTRPAPGSTAPP
# T4: SEQ ID NO: 346 glycopeptide with TF-antigen at Ser5 (not fully specified (residue 5))
# T4 construct: also called S5^TF
# T4 peptide: HGVTSAPDTRPAPGSTAPP
# T5: SEQ ID NO: 346 glycopeptide with TF-antigen at Thr9
# T5 construct: also called T9^TF
# T5 peptide: HGVTSAPDT(Galβ1‑3GalNAc)RPAPGSTAPP
# T6: SEQ ID NO: 346 glycopeptide with TF-antigen at Thr16
# T6 construct: also called T16^TF
# T6 peptide: HGVTSAPDTRPAPGST(Galβ1‑3GalNAc)APP
# T7: SEQ ID NO: 346 glycopeptide with TF-antigen at Thr4 and Thr9
# T7 construct: also called T4^TF/T9^TF
# T7 peptide: HGVT(Galβ1‑3GalNAc)SAPDT(Galβ1‑3GalNAc)RPAPGSTAPP
# T8: SEQ ID NO: 346 glycopeptide with Tn-antigen at Thr4, Thr9 and Thr16
# T8 construct: also called T4^Tn/T9^Tn/T16^Tn
# T8 peptide: HGVT(αGalNAc)SAPDT(αGalNAc)RPAPGST(αGalNAc)APP
# B1: M7 (antibody, human IgG1, kappa, V domains shown)
# VH: EVQLVESGGGLVQPGGSLRLSCAASGFTVSSNYMSWVRQAPGKGLEWVSVIYSGGSTYYADSVKGRFTISRDNSKNTLYLQMNSLRAEDTAVYYCARGSTNTYYYDSSGHPWGQGTMVTVSS
# VL: DIVMTQSPLSLPATPGEPASISCRSSQSLLHSNGYTYLDWYLQKPGQSPQVLIYLASNRASGVPDRFSGSGSGTNFTLKISRVEAEDVGLFYCMQALQTPQTFGQGTKLEIKR
# notes: Human IgG
# How the values were obtained:
# [1] = biological target: T1, Synthetic peptide …; experiment: ELISA on coated peptide, antibody 0.01 mg/ml, mean of 3
# Text: (§1) Selected antibodies from Table 1 were further characterized for binding to synthetic MUC1 glycopeptides that were synthesized with the GalNac or GaNac-Gal carbohydrates on various serines and threonines along the MUC1 tandem repeat. If placed within the specific epitope recognized by an antibody, the antibody would not bind that particular glycopeptide.
# [2] = biological target: T2, Synthetic peptide HGVTSAPDTRPAPGSTAPP; experiment: as above
# Text: as §1
# [3] = biological target: T9, 100 aa-long synthetic MUC1 peptide (…)5; experiment: ELISA titration on coated 100-mer peptide, EC50 approximated
# T9 construct: also called 100-mer; vaccine 100-mer peptide
# Text: Heavy and light chains of antibodies reactive against MUC1 were generated from plasma of individuals vaccinated with a 100 aa-long synthetic MUC1 peptide (100-mer) representing the unglycosylated tumor associated MUC1 antigen (Kimura et al., 2013, Cancer Prev. Res. (Phila.), 6:18-26). Binding of monoclonal antibodies produced by combinatorial pairing of chains was characterized by ELISA using the vaccine 100-mer peptide consisting of the following sequence ([…])₅ (SEQ ID NO: 2). Briefly, 96-well high-binding ELISA plates were coated with 50 μl of the peptide diluted in carbonate buffer at 2 μg/ml. The wells were washed then blocked with 5% fat-free milk in phosphate-buffered saline (PBS). Antibodies were diluted in 5% milk in PBS with 0.1% TWEEN 20 (PBS-T) and then added to the peptide-coated, blocked wells and incubated at 37° C. for 2 hours, after which the wells were washed. Binding of antibody was probed with an anti-human IgG goat antibody conjugated to horseradish peroxidase (HRP), and signal was detected with 3,3′,5,5′-tetramethylbenzidine (TMB) substrate, which was neutralized with an acid, then the 450 nm absorbance was read. […] Additionally, the EC₅₀ of each antibody was approximated by ELISA titration (Table 1).
# [4] = biological target: T3, SEQ ID NO: 346 glycopeptide with …; experiment: ELISA on coated glycopeptide, antibody 0.01 mg/ml, mean of 3
# Text: as §1
# [5] = biological target: T4, SEQ ID NO: 346 glycopeptide with …; experiment: as above
# Text: as §1
# [6] = biological target: T5, SEQ ID NO: 346 glycopeptide with …; experiment: as above
# Text: as §1
# [7] = biological target: T6, SEQ ID NO: 346 glycopeptide with …; experiment: as above
# Text: as §1
# [8] = biological target: T7, SEQ ID NO: 346 glycopeptide with …; experiment: as above
# Text: as §1
# [9] = biological target: T8, SEQ ID NO: 346 glycopeptide with …; experiment: as above
# Text: as §1
binder,measurement,setting,value
B1,ELISA absorbance at 450 nm,[1],3.5 absorbance
same,ELISA absorbance at 450 nm,[2],0.1 absorbance
same,EC50,[3],0.011 µg/mL
same,ELISA absorbance at 450 nm,[4],0.1 absorbance
same,ELISA absorbance at 450 nm,[5],0.1 absorbance
same,ELISA absorbance at 450 nm,[6],0.1 absorbance
same,ELISA absorbance at 450 nm,[7],0.1 absorbance
same,ELISA absorbance at 450 nm,[8],0.1 absorbance
same,ELISA absorbance at 450 nm,[9],0.1 absorbance
